Results on four molecules are retold here after US20190315854A1 (BEIJING VDJBIO, published 2019).

The target of experiment [1] is T1, sIL-6R (soluble IL-6 receptor; SBH Sciences) (human, UniProt P08887 20-365).
T1 construct: also called human IL-6R
T1 sequence: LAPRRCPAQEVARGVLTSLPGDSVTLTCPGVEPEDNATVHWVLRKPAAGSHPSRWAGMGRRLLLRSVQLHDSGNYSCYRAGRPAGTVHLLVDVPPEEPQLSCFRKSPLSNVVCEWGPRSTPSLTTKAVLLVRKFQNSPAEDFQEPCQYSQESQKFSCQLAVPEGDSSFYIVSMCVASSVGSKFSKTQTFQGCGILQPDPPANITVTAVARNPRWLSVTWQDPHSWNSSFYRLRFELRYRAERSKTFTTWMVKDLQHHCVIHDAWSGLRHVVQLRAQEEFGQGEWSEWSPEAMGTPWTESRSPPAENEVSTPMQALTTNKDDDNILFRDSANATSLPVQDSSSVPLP
The experiment is described as follows: SPR (BIAcore 3000), antibody on chip, sIL-6R analyte, 25 C. The method, then:
(§1) All SPR measurements were performed on a BIAcore 3000 instrument (GE Biosciences, Piscataway, N.J.). BIAcore Software-BIAcore 3000 Control Software V3.2 was used for the operation and control of the BIAcore 3000 instrument. BiaEvaluation Software V4.1 was used for the analysis of SPR data from the BIAcore 3000 instrument and data was plotted using Graph Pad Prism Software Version 5. […] The indicated antibodies were used as the ligand for the construction of the reference channel of the chip. […] Each sample was injected for 3 min at a flow rate of 30 μL/min to allow for binding to chip-bound antibody. Next, binding buffer without analyte was sent over the chip at the same flow rate to allow for dissociation of bound analyte. After 500s, remaining bound analyte was removed by injecting regeneration solution (1M Formic acid). Data was analyzed by using the Kinetics Wizard and the manual fitting programs that are both included with the BiaEvaluation Software V4.1.
On the technique in general: SPR reads the build-up and loss of mass on a sensor chip optically.

Experiment [2] addresses T1, sIL-6R (soluble IL-6 receptor; SBH …). Nature of the experiment: SPR (BIAcore 3000), antibody on chip, sIL-6R analyte, pH 7.4. The method, then:
as §1
(§2) SPR measurements at pH 7.4 and pH 6.0 were performed in parallel and KD values calculated according to the protocol as detailed in Example 1. The pH dependence is calculated as the ratio between the KD value at pH 6.0 and the KD value at pH 7.4, which indicates the fold of affinity decrease from the pH7.4 to pH6.0. If the pH dependence of a subject antibody described herein is over 1, it means that the antibody binds to IL-6R in such a pH-dependent manner that its binding to IL-6R at pH7.4 is higher than at pH6.0. If the pH dependence of a subject antibody described herein is lower than 1, it means that the antibody binds to IL-6R in such a pH-dependent manner that its binding to IL-6R at pH6.0 is higher than at pH7.4.

The target is the same in experiment [3]. Described as above. The method, then:
as §1, §2
The source holds these as a separate data set.

Experiment [4] has the same target. Nature of the experiment: SPR (BIAcore 3000), antibody on chip, sIL-6R analyte, pH 6.0. The method, then:
as §1, §2

The target is the same in experiment [5]. The experiment is described as follows: SPR (BIAcore 3000), antibody on chip, sIL-6R analyte, 25 C. Here is the method: as §1
This is another data set of the same source.

The target is the same in experiment [6]. The description is as above. In short, it runs like this: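 Antibody immobilized on chip, sIL-6R injected as analyte for 3 min at 30 μL/min, then buffer-only dissociation for 500 s. Surface regenerated with 1M formic acid between cycles. Kinetics obtained by fitting sensorgrams with Kinetics Wizard and manual fitting.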
The source holds these as a separate data set.

Experiment [7] shares this target. Described as above. The method, then:
as §1
This is another data set of the same source.

Experiment [8] shares this target. The experiment is described as follows: SPR (BIAcore 3000), antibody on chip, sIL-6R analyte, pH 7.4; pH 7.4. Here is the method:
as §1
(§3) SPR measurements at pH 7.4 and pH 6.0 were performed in parallel and KD values calculated according to the protocol as detailed in Example 1. The pH dependence is calculated as the ratio between the KD value at pH 6.0 and the KD value at pH 7.4, which indicates the fold of affinity decrease from the pH7.4 to pH6.0. […]

Experiment [9] shares this target. Described as above. The source holds these as a separate data set.
In experiment [10] the target is T2, IL-6 receptor on DS-1 cells (ATCC CRL 11102) (UniProt P08887 20-468, limits assumed).
T2 sequence (looked up): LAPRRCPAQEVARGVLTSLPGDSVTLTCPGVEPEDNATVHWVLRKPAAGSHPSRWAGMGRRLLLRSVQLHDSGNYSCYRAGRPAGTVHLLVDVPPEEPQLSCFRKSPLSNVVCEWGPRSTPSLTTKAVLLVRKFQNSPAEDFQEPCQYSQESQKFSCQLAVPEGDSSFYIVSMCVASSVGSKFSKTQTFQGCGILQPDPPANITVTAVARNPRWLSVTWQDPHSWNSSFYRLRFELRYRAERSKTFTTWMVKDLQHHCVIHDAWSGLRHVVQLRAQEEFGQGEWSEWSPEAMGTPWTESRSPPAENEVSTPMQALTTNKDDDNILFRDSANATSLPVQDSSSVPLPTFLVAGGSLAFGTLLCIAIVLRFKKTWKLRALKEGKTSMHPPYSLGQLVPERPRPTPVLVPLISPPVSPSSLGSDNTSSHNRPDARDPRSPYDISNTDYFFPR
Nature of the experiment: cell-based or functional assay.

Experiment [11] concerns the target T1, sIL-6R (soluble IL-6 receptor; SBH …). Nature of the experiment: SPR (BIAcore 3000), antibody on chip, sIL-6R analyte, 25 C. The method, then: as §1
This is another data set of the same source.

Experiment [12] has the same target. The experiment is described as follows: SPR (BIAcore 3000), antibody on chip, sIL-6R analyte, pH 6.0. The method, then:
as §1, §2
This is another data set of the same source.

Experiment [13] has the same target. Nature of the experiment: SPR; ratio of KD at pH 6.0 to KD at pH 7.4; averaged between the two batches. Here is the method: as §1, §3
Experiment [14] shares this target. The experiment is described as follows: SPR; ratio of KD at pH 6.0 to KD at pH 7.4. The method, then: as §1, §2

Where two headings read alike, the source gives them in different places.

B1: Tocilizumab (antibody, human IgG1, kappa, V domains shown)
VH: QVQLQESGPGLVRPSQTLSLTCTVSGYSITSDHAWSWVRQPPGRGLEWIGYISYSGITTYNPSLKSRVTMLRDTSKNQFSLRLSSVTAADTAVYYCARSLARTTAMDYWGQGSLVTVSS
VL: DIQMTQSPSSLSASVGDRVTITCRASQDISSYLNWYQQKPGKAPKLLIYYTSRLHSGVPSRFSGSGSGTDFTFTISSLQPEDIATYYCQQGNTLPYTFGQGTKVEIKR
notes: also called 25; 25(control)
A word on the Kd: it is the concentration at which binding is half-saturated. The low end stands for tighter binding, the high end for weaker binding. In general, koff refers to the first-order rate constant of dissociation. Read a low koff as slow dissociation. As a reminder, the kon is a measure of how fast the partners come together. Read a low kon as slower complex formation. As to B1, the Kd is 2.8 nM in [1]; 2.85 nM in experiment [3]; 1.79 nM in [4]; 2.85 nM in [5]; 3.16 nM in [6]; 1.34 nM in experiment [7]. Moreover, the Kd in experiment [9] amounted to 3.16 nM; in experiment [11] it was 1.71 nM; in experiment [12] it was 2 nM. In addition, the “Relative Affinity” value in experiment [1], in experiment [5], in experiment [6], in experiment [7] and in [11] was 1 fold vs 25 (Tocilizumab) each time. Also, the koff in [1] turned out to be 0.00035 s⁻¹; in [2] it was 0.000341 s⁻¹; in [3], 0.000349 s⁻¹; in experiment [4], 0.000566 s⁻¹; in [5], 0.000349 s⁻¹; in [6], 0.000341 s⁻¹. The koff in experiment [7] stood at 0.000252 s⁻¹; in [11] it was 0.000353 s⁻¹; in experiment [12] it was 0.000564 s⁻¹. The kon in experiment [1] was 125000 M⁻¹ s⁻¹; in experiment [2], 108000 M⁻¹ s⁻¹; in experiment [4] it was 316000 M⁻¹ s⁻¹; in experiment [5], 122000 M⁻¹ s⁻¹; in experiment [6] it was 108000 M⁻¹ s⁻¹; in experiment [7], 188000 M⁻¹ s⁻¹. In addition, the kon in [8] came to 122000 M⁻¹ s⁻¹; in [11], 207000 M⁻¹ s⁻¹; in experiment [12], 283000 M⁻¹ s⁻¹. Besides, in experiment [10], the “IC50 (µg/ml), inhibition of DS-1 cell proliferation, MTS assay, IL6 2 ng/mL” value (shortened to “IC50 (µg/ml), inhibition”) came to 0.33 µg/mL. Besides, the “pH dependence (Fold of affinity decrease)” value in experiment [13] turned out to be 0.48 fold.

B2: 204# (antibody, human IgG1, kappa, V domains shown)
VH: QVQLQESGPGLVRPSQTLSLTCTVSGYSITSDHAWSWVRQPPGRGLEWIGFISYSGMTTYNPSLKSRVTMLRDTSKNQFSLRLSSVTAADTAVYYCARCLARITAMDYWGQGSLVTVSS
VL: DIQMTQSPSSLSASVGDRVTITCRASQDISSYLNWYQQKPGKAPKLLIYYTSRLHSGVPSRFSGSGSGTDFTFTISSLQPEDIATYYCGQGNRLPYTFGQGTKVEIKR
As to B2, in [5], the Kd is 0.0143 nM, the “Relative Affinity” value was 199 fold vs 25 (Tocilizumab), the koff was determined as 3.28e-06 s⁻¹ and the kon stood at 229000 M⁻¹ s⁻¹. The “IC50 (µg/ml), inhibition” value in experiment [10] is 0.0362 µg/mL.

B3: 206# (antibody, human IgG1, kappa, V domains shown)
VH: QVQLQESGPGLVRPSQTLSLTCTVSGYSITSDHAWSWVRQPPGRGLEWIGFISYSGMTTYNPSLKSRVTMLRDTSKNQFSLRLSSVTAADTAVYYCARSLARITAMDYWGQGSLVTVSS
VL: DIQMTQSPSSLSASVGDRVTITCRASQDISSYLNWYQQKPGKAPKLLIYYTSRLHSGVPSRFSGSGSGTDFTFTISSLQPEDIATYYCGQGNRLPYTFGQGTKVEIKR
notes: also called Sample # 206
As for B3, the “pH dependence (Fold of affinity decrease)” value in experiment [14] worked out at 28.4 fold. Besides, in [1], the dissociation constant (Kd) is 0.000587 nM, the “Relative Affinity” value is 4770 fold vs 25 (Tocilizumab), the koff is 1.35e-07 s⁻¹ and the kon is 230000 M⁻¹ s⁻¹. In experiment [3], this molecule gave a Kd of 0.00075 nM, a koff of 1.41e-07 s⁻¹ and a kon of 189000 M⁻¹ s⁻¹. Also, in [5], the Kd is 0.00075 nM, the “Relative Affinity” value is 3800 fold vs 25 (Tocilizumab), the koff was determined as 1.41e-07 s⁻¹ and the kon worked out at 189000 M⁻¹ s⁻¹. Also, the “IC50 (µg/ml), inhibition” value in experiment [10] is 0.0339 µg/mL. In experiment [12], this molecule had a Kd of 0.0213 nM, a koff of 8.78e-06 s⁻¹ and a kon of 412000 M⁻¹ s⁻¹.

B4: 202# (antibody, human IgG1, kappa, V domains shown)
VH: QVQLQESGPGLVRPSQTLSLTCTVSGYSITSDHAWSWVRQPPGRGLEWIGYISYSGITTYNPSLKSRVTMLRDTSKNQFSLRLSSVTAADTAVYYCARVLARITAMDYWGQGSLVTVSS
VL: DIQMTQSPSSLSASVGDRVTITCRASQDISSYLNWYQQKPGKAPKLLIYYTSRLHSGVPSRFSGSGSGTDFTFTISSLQPEDIATYYCGQGNRLPYTFGQGTKVEIKR
Take B4: the “pH dependence (Fold of affinity decrease)” value in experiment [14] came to 0.74 fold. Besides, in experiment [1], the Kd came out at 0.0236 nM, the “Relative Affinity” value is 119 fold vs 25 (Tocilizumab), the koff was 3.17e-06 s⁻¹ and the kon is 134000 M⁻¹ s⁻¹. For the same molecule, in experiment [3], the Kd turned out to be 0.0288 nM, the koff turned out to be 2.46e-06 s⁻¹ and the kon came to 85300 M⁻¹ s⁻¹. In addition, in experiment [5], the Kd was determined as 0.0288 nM, the “Relative Affinity” value is 99 fold vs 25 (Tocilizumab), the koff worked out at 2.46e-06 s⁻¹ and the kon was 85300 M⁻¹ s⁻¹. For the same molecule, the “IC50 (µg/ml), inhibition” value in experiment [10] stood at 0.0686 µg/mL. Moreover, in [12], the affinity, expressed as Kd, was 0.0214 nM; the koff is 6.1e-06 s⁻¹; the kon was determined as 284000 M⁻¹ s⁻¹.
